Target: NNN-GFPglyc (GnTI CTS region fused to the glycosylation reporter GFPglyc) (Nicotiana tabacum (legend of Figure 1 and methods); the running text says N. benthamiana)
Assay: FRET or BRET; two-photon FRET-FLIM in living N. benthamiana leaf epidermal cells, Golgi bodies, leaves treated with 25 uM latrunculin B; donor NNN-GFPglyc, acceptor CTS-mRFP; a decrease of the donor lifetime by 0.20 ns or 8% taken as interaction

Substance | FRET efficiency E | donor lifetime with acceptor (tau DA) | lifetime contrast (delta tau)
RNN-mRFP (chimeric CTS region: ST cytoplasmic tail, GnTI transmembrane domain and stem, fused to mRFP) (from UniProt P13721 1-9) | 10.8% | 2.18 ns | 0.26 ns
NNN-mRFP (GnTI CTS region fused to mRFP) (domain or fragment) | 14.6% | 2.08 ns | 0.36 ns
